For the assay, the target named is T1, HA-Rlf (mouse, UniProt Q61193 1-778).
T1 sequence (looked up): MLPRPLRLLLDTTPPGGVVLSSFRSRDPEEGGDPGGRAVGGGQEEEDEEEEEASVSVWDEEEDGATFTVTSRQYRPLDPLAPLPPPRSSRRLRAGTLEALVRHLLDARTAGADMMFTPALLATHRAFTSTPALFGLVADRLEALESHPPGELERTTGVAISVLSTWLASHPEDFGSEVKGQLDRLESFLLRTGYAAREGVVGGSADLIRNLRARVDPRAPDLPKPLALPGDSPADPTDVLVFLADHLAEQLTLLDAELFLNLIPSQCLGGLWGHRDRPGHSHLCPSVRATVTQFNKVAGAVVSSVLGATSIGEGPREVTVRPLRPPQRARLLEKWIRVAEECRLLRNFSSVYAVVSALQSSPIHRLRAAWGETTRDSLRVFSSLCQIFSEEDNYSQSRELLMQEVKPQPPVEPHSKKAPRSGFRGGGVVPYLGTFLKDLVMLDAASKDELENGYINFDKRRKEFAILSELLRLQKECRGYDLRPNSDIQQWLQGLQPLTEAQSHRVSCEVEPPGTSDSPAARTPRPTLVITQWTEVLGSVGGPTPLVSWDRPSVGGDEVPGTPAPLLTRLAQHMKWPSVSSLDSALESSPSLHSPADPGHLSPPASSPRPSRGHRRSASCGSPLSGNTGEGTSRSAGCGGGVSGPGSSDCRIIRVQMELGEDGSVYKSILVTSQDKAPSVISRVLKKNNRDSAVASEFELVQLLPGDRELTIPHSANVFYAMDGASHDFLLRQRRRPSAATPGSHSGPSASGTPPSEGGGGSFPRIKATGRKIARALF
Nature of the assay: co-IP.

B1: Myc-Rab10 (QL) (natural protein, UniProt P61026 1-200, looked up)
chain: MAKKTYDLLFKLLLIGDSGVGKTCVLFRFSDDAFNTTFISTIGIDFKIKTVELQGKKIKLQIWDTAGLERFHTITTSYYRGAMGIMLVYDITNGKSFENISKWLRNIDEHANEDVERMLLGNKCDMDDKRVVPKGKGEQIAREHGIRFFETSAKANINIEKAFLTLAEDILRKTPVKEPNSENVDISSGGGVTGWKSKCC
Consider B1, for which the “fold binding against wild-type Rab10” value is 2 fold.

The record behind these values is article PMC4230594 (Molecular Biology of the Cell, 2014).
